Ends that are not written are not given here.
target: T1, amylin receptor AMY1, a CT (calcitonin) receptor/RAMP1 (receptor-activity modifying protein) complex (UniProt P30988 25-474; O60894 27-148, limits assumed); assay: cell-based or functional assay
T1 sequence (P30988 25-474 limits assumed, chain 1 of 2): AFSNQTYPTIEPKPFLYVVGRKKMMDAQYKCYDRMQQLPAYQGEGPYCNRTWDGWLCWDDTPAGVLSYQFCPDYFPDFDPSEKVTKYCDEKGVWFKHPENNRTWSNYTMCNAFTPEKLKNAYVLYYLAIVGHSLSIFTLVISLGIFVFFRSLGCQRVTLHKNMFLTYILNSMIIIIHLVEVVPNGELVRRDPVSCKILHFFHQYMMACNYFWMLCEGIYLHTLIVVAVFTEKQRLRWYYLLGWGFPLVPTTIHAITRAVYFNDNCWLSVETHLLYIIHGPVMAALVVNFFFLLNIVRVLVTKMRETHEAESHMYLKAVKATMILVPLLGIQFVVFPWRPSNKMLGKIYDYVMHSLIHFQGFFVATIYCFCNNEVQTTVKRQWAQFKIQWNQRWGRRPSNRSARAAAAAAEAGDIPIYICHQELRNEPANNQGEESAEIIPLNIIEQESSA
T1 sequence (O60894 27-148 limits assumed, chain 2 of 2): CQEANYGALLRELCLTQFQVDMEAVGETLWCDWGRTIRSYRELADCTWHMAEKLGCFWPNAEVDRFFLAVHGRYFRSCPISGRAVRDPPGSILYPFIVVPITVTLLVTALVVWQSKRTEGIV

| IC50 nM (calcium flux, assay positive control) | Binder |
| --- | --- |
| 8150 nM | VLGKLSQELHKLQTYPRTNTGSNTY (not fully specified) [AC187] |

target: T1, amylin receptor AMY1, a CT (calcitonin) …; assay: cell-based or functional assay; remark: another data set of the same source

| IC50 nM (calcium flux, inhibition of stimulation by 32 nM α-CGRP) | Binder |
| --- | --- |
| 9 nM | H-ACNLSVCVLGRLSQELHRLQTYPRTNVGSKAF-NH2 (not fully specified (bridges); printed as NH2-Ala-Cys-Asn-Leu-Ser-Val-Cys-Val-Leu-Gly-Arg-Leu-Ser-Gln-Glu-Leu-His-Arg-Leu-Gln-Thr-Tyr-Pro-Arg-Thr-Asn-Val-Gly-Ser-Lys-Ala-Phe-NH2; cysteine pairing not given here) [modified calcitonin gene-related peptide antagonist of SEQ ID NO: 11] |
| 75 nM | H-ACVLGACVLGRLSQELHRLQTYPRTNVGSKAF-NH2 (not fully specified (bridges); printed as NH2-Ala-Cys-Val-Leu-Gly-Ala-Cys-Val-Leu-Gly-Arg-Leu-Ser-Gln-Glu-Leu-His-Arg-Leu-Gln-Thr-Tyr-Pro-Arg-Thr-Asn-Val-Gly-Ser-Lys-Ala-Phe-NH2; cysteine pairing not given here) [modified calcitonin gene-related peptide antagonist of SEQ ID NO: 5] |
| 33 nM | H-ACRFGACVLGRLSQELHRLQTYPRTNVGSKAF-NH2 (not fully specified (bridges); printed as NH2-Ala-Cys-Arg-Phe-Gly-Ala-Cys-Val-Leu-Gly-Arg-Leu-Ser-Gln-Glu-Leu-His-Arg-Leu-Gln-Thr-Tyr-Pro-Arg-Thr-Asn-Val-Gly-Ser-Lys-Ala-Phe-NH2; cysteine pairing not given here) [modified calcitonin gene-related peptide antagonist of SEQ ID NO: 6] |
| 4 nM | H-ACNLSACVLGRLSQELHRLQTYPTNTGSGTP-NH2 (not fully specified (bridges); printed as NH2-Ala-Cys-Asn-Leu-Ser-Ala-Cys-Val-Leu-Gly-Arg-Leu-Ser-Gln-Glu-Leu-His-Arg-Leu-Gln-Thr-Tyr-Pro-Thr-Asn-Thr-Gly-Ser-Gly-Thr-Pro-NH2; cysteine pairing not given here) [modified calcitonin gene-related peptide antagonist of SEQ ID NO: 13] |
| 12 nM | H-ACNTAACVLGRLSQELHRLQTYPRTNVGSKAF-NH2 (not fully specified (bridges); printed as NH2-Ala-Cys-Asn-Thr-Ala-Ala-Cys-Val-Leu-Gly-Arg-Leu-Ser-Gln-Glu-Leu-His-Arg-Leu-Gln-Thr-Tyr-Pro-Arg-Thr-Asn-Val-Gly-Ser-Lys-Ala-Phe-NH2; cysteine pairing not given here) [modified calcitonin gene-related peptide antagonist of SEQ ID NO: 4] |
| 8 nM | H-ACNLSACVLGRLSQELHRLQTYPRTNVGSKAF-NH2 (not fully specified (bridges); printed as NH2-Ala-Cys-Asn-Leu-Ser-Ala-Cys-Val-Leu-Gly-Arg-Leu-Ser-Gln-Glu-Leu-His-Arg-Leu-Gln-Thr-Tyr-Pro-Arg-Thr-Asn-Val-Gly-Ser-Lys-Ala-Phe-NH2; cysteine pairing not given here) [modified calcitonin gene-related peptide antagonist of SEQ ID NO: 7] |
| 1020 nM | ACVLGACVLGRLSQELHRLQTYPVDPSSPHSY-NH2 (not fully specified (bridges); printed as Ala-Cys-Val-Leu-Gly-Ala-Cys-Val-Leu-Gly-Arg-Leu-Ser-Gln-Glu-Leu-His-Arg-Leu-Gln-Thr-Tyr-Pro-Val-Asp-Pro-Ser-Ser-Pro-His-Ser-Tyr-NH2; cysteine pairing not given here) [modified calcitonin gene-related peptide antagonist of SEQ ID NO: 14] |
| 9 nM | H-CSNTAVCVLGRLSQELHRLQTYPRTNVGSKAF-NH2 (not fully specified (bridges); printed as NH2-Cys-Ser-Asn-Thr-Ala-Val-Cys-Val-Leu-Gly-Arg-Leu-Ser-Gln-Glu-Leu-His-Arg-Leu-Gln-Thr-Tyr-Pro-Arg-Thr-Asn-Val-Gly-Ser-Lys-Ala-Phe-NH2; cysteine pairing not given here) [modified calcitonin gene-related peptide antagonist of SEQ ID NO: 12] |
| 9 nM | H-ACDTAICVLGRLSQELHRLQTYPRTNVGSKAF-NH2 (not fully specified (bridges); printed as NH2-Ala-Cys-Asp-Thr-Ala-Ile-Cys-Val-Leu-Gly-Arg-Leu-Ser-Gln-Glu-Leu-His-Arg-Leu-Gln-Thr-Tyr-Pro-Arg-Thr-Asn-Val-Gly-Ser-Lys-Ala-Phe-NH2; cysteine pairing not given here) [modified calcitonin gene-related peptide antagonist of SEQ ID NO: 10] |
| 1240 nM | ACDTAACVTHRLAGLLSRSGGVVKNNFVPTNVGSKAF-NH2 (not fully specified (bridges); printed as Ala-Cys-Asp-Thr-Ala-Ala-Cys-Val-Thr-His-Arg-Leu-Ala-Gly-Leu-Leu-Ser-Arg-Ser-Gly-Gly-Val-Val-Lys-Asn-Asn-Phe-Val-Pro-Thr-Asn-Val-Gly-Ser-Lys-Ala-Phe-NH2; cysteine pairing not given here) [modified calcitonin gene-related peptide antagonist of SEQ ID NO: 15] |
| 4 nM | H-ACDTAVCVLGRLSQELHRLQTYPRTNVGSKAF-NH2 (not fully specified (bridges); printed as NH2-Ala-Cys-Asp-Thr-Ala-Val-Cys-Val-Leu-Gly-Arg-Leu-Ser-Gln-Glu-Leu-His-Arg-Leu-Gln-Thr-Tyr-Pro-Arg-Thr-Asn-Val-Gly-Ser-Lys-Ala-Phe-NH2; cysteine pairing not given here) [modified calcitonin gene-related peptide antagonist of SEQ ID NO: 3] |
| 16 nM | H-CSNTAACVLGRLSQELHRLQTYPRTNVGSKAF-NH2 (not fully specified (bridges); printed as NH2-Cys-Ser-Asn-Thr-Ala-Ala-Cys-Val-Leu-Gly-Arg-Leu-Ser-Gln-Glu-Leu-His-Arg-Leu-Gln-Thr-Tyr-Pro-Arg-Thr-Asn-Val-Gly-Ser-Lys-Ala-Phe-NH2; cysteine pairing not given here) [modified calcitonin gene-related peptide antagonist of SEQ ID NO: 8] |
| 17 nM | H-ACDTAACVLGRLSQELHRLQTYPRTNVGSKAF-NH2 (not fully specified (bridges); printed as NH2-Ala-Cys-Asp-Thr-Ala-Ala-Cys-Val-Leu-Gly-Arg-Leu-Ser-Gln-Glu-Leu-His-Arg-Leu-Gln-Thr-Tyr-Pro-Arg-Thr-Asn-Val-Gly-Ser-Lys-Ala-Phe-NH2; cysteine pairing not given here) [modified calcitonin gene-related peptide antagonist of SEQ ID NO: 1] |
| 9 nM | H-ACDTALCVLGRLSQELHRLQTYPRTNVGSKAF-NH2 (not fully specified (bridges); printed as NH2-Ala-Cys-Asp-Thr-Ala-Leu-Cys-Val-Leu-Gly-Arg-Leu-Ser-Gln-Glu-Leu-His-Arg-Leu-Gln-Thr-Tyr-Pro-Arg-Thr-Asn-Val-Gly-Ser-Lys-Ala-Phe-NH2; cysteine pairing not given here) [modified calcitonin gene-related peptide antagonist of SEQ ID NO: 9] |
| 5 nM | H-ACDTASCVLGRLSQELHRLQTYPRTNVGSKAF-NH2 (not fully specified (bridges); printed as NH2-Ala-Cys-Asp-Thr-Ala-Ser-Cys-Val-Leu-Gly-Arg-Leu-Ser-Gln-Glu-Leu-His-Arg-Leu-Gln-Thr-Tyr-Pro-Arg-Thr-Asn-Val-Gly-Ser-Lys-Ala-Phe-NH2; cysteine pairing not given here) [modified calcitonin gene-related peptide antagonist of SEQ ID NO: 2] |

— patent US20140329752A1 (published 2014)
